The assay concerns the target T1, MIS12 complex (full-length MIS12C) (human, UniProt Q9H081 1-205; Q6P1K2 1-205; Q9H410 1-356; Q96IY1 1-281).
T1 sequence (looked up) 1: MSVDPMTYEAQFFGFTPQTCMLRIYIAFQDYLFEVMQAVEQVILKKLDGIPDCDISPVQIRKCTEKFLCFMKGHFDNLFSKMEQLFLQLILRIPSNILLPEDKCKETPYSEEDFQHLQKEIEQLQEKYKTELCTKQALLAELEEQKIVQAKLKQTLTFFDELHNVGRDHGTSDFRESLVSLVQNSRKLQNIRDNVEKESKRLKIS
T1 sequence (looked up) 2: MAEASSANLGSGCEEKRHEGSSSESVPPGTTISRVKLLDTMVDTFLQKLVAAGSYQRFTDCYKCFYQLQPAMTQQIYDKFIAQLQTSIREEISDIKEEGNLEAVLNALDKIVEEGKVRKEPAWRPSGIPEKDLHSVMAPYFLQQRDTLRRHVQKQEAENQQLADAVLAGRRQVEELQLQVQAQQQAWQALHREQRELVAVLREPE
T1 sequence (looked up) 3: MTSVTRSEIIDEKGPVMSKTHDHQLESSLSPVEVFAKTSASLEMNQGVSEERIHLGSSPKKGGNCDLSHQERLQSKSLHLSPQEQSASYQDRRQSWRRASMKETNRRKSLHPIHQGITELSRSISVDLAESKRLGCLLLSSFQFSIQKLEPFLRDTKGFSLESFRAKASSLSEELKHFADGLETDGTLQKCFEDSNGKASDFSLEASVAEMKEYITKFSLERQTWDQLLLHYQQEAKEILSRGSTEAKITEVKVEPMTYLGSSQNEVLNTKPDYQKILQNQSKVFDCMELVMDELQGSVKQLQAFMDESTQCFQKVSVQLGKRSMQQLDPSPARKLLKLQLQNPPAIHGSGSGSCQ
T1 sequence (looked up) 4: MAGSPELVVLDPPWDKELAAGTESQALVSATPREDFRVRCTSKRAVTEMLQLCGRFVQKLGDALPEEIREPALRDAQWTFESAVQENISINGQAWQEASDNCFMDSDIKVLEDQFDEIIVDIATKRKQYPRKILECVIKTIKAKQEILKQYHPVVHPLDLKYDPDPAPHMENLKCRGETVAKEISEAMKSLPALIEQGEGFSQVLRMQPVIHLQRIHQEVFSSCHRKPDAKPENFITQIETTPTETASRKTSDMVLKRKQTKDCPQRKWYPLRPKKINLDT
Nature of the assay: pull-down.

The record followed here is publication PMC2935574 (The Journal of Cell Biology, 2010).

B1: GST-KNL1^1904–2316 (domain or fragment, human, UniProt Q8NG31-2 1904-2316, looked up)
chain: EDLMLSQYVYRPKIQIYREDCEARRQKIEELKLSASNQDKLLVDINKNLWEKMRHCSDKELKAFGIYLNKIKSCFTKMTKVFTHQGKVALYGKLVQSAQNEREKLQIKIDEMDKILKKIDNCLTEMETETKNLEDEEKNNPVEEWDSEMRAAEKELEQLKTEEEELQRNLLELEVQKEQTLAQIDFMQKQRNRTEELLDQLSLSEWDVVEWSDDQAVFTFVYDTIQLTITFEESVVGFPFLDKRYRKIVDVNFQSLLDEDQAPPSSLLVHKLIFQYVEEKESWKKTCTTQHQLPKMLEEFSLVVHHCRLLGEEIEYLKRWGPNYNLMNIDINNNELRLLFSSSAAFAKFEITLFLSAYYPSVPLPSTIQNHVGNTSQDDIATILSKVPLENNYLKNVVKQIYQDLFQDCHFYH
With B1, the binding result is listed as “binds”.
